Source: paper PMC2172333 (The Journal of Cell Biology, 2004)
Blank lines part the entries; values can stand above or below the binder they belong to.

Columns and labels:
Assay in all cases: pull-down
MBP-Bfa1 = target: T1, MBP-Bfa1 (yeast, UniProt P47113 1-574)
T1 sequence: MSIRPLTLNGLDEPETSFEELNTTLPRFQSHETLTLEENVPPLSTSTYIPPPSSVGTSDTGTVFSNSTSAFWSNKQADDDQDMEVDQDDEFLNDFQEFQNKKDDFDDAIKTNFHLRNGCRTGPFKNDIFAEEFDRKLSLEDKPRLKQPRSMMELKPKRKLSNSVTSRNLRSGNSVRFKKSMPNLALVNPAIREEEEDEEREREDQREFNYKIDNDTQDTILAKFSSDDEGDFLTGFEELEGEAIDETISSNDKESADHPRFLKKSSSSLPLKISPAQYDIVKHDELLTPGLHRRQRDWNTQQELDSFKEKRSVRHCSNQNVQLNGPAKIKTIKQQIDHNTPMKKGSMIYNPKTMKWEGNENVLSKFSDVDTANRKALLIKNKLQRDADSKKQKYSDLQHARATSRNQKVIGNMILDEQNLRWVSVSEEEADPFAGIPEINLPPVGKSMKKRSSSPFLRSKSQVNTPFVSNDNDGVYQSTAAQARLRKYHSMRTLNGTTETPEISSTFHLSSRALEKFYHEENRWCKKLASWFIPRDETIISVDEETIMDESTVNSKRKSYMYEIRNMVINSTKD

MBP-Bub2 = target: T2, MBP-Bub2 (yeast, UniProt P26448 1-306)
T2 sequence: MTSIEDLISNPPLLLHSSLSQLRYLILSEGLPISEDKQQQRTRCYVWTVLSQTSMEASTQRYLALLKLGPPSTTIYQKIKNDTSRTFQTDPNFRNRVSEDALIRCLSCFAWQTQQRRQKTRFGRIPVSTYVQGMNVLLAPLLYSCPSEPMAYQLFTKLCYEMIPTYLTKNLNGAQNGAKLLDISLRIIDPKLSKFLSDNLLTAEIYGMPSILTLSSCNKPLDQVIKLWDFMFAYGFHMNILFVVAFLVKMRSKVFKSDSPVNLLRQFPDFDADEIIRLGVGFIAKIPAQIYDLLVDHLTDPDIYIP

[1] = target: T3, NH2-terminal domain of Net1 (Net1 1-600) (yeast, UniProt P47035 1-600)
T3 sequence: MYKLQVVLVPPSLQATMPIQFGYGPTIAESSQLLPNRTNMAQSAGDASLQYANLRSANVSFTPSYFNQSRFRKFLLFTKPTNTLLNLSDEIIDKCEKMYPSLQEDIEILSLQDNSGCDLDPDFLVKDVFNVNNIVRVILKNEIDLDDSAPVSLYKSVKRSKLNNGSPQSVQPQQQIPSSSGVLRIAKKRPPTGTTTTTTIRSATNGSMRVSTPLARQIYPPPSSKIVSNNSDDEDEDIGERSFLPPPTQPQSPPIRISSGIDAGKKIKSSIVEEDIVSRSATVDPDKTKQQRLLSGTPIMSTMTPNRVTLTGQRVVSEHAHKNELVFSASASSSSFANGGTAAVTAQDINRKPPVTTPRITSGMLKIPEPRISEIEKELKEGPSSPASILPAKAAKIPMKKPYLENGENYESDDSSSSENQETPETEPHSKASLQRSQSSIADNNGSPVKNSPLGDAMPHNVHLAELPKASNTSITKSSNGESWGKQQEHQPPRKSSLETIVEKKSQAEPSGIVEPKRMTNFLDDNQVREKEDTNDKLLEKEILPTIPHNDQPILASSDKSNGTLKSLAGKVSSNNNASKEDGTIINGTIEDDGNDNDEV

binding result (MBP-Bfa1): binds | binding result (MBP-Bub2): binds
B1: His6-Tem1 (natural protein)
chain: MATPSTGANNSIPAVRNQVEVQVGLVGDAQVGKTSLMVKYVQNIYDKEYTQTLGVNFLKRKVSIRSTDIIFSIMDLGGQREFINMLPIATVGSSVIIFLFDLTRPETLSSIKEWYRQAYGLNDSAIPILVGTKYDLLIDLDPEYQEQISRTSMKYAQVMNAPLIFCSTAKSINIQKIFKIALAKIFNLTLTIPEINEIGDPLLIYKHLGGQQHRHHNKSQDRKSHNIRKPSSSPSSKAPSPGVNT

binding result [1]: binds
B2: MBP-Cdc14 (natural protein)
chain: MRRSVYLDNTIEFLRGRVYLGAYDYTPEDTDELVFFTVEDAIFYNSFHLDFGPMNIGHLYRFAVIFHEILNDPENANKAVVFYSSASTRQRANAACMLCCYMILVQAWTPHQVLQPLAQVDPPFMPFRDAGYSNADFEITIQDVVYGVWRAKEKGLIDLHSFNLESYEKYEHVEFGDFNVLTPDFIAFASPQEDHPKGYLATKSSHLNQPFKSVLNFFANNNVQLVVRLNSHLYNKKHFEDIGIQHLDLIFEDGTCPDLSIVKNFVGAAETIIKRGGKIAVHCKAGLGRTGCLIGAHLIYTYGFTANECIGFLRFIRPGMVVGPQQHWLYLHQNDFREWKYTTRISLKPSEAIGGLYPLISLEEYRLQKKKLKDDKRVAQNNIEGELRDLTMTPPSNGHGALSARNSSQPSTANNGSNSFKSSAVPQTSPGQPRKGQNGSNTIEDINNNRNPTSHANRKVVIESNNSDDESMQDTNGTSNHYPKVSRKKNDISSASSSRMEDNEPSATNINNAADDTILRQLLPKNRRVTSGRRTTSAAGGIRKISGSIKK

binding result (MBP-Bfa1): binds
B3: GST-Bub2 (natural protein)
chain: T2 sequence
